Read-outs that look alike come from different tables or passages of the source.

Two substances from patent US20130136718A1 can be followed below.

For assay [1], the target named is CD20 (human) (UniProt P11836). In words: cell-based or functional assay.
Assay [2] deals with CD20 (human) (UniProt P11836). In words: cell-based or functional assay. The source holds these as a separate data set.

Sequence of CD20 (human) (P11836 whole entry): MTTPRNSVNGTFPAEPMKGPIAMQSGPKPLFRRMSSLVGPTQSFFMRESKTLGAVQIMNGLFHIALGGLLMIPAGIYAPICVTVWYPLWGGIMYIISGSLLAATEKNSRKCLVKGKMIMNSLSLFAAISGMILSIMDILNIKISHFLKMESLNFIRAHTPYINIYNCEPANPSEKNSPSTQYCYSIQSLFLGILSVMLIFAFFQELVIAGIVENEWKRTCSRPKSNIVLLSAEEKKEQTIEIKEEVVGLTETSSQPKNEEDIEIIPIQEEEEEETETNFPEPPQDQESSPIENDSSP

Substance 20-2b (from UniProt P01563 24-188) had an in vitro proliferation of Jeko-1 cells, high-concentration response, EC50 in the assay with CD20 (human) [1] of 0.85 nM. In the assay with CD20 (human) [2], this substance returned an in vitro proliferation of Daudi cells, potency against non-targeting MAb-IFNα constructs of 30 fold; an in vitro proliferation of Jeko-1 cells, low-concentration response, EC50 of 0.97 pM; an in vitro proliferation of Jeko-1 cells, potency against 734-2b of 25 fold.

With veltuzumab (antibody), the figures for the in vitro proliferation of Jeko-1 cells, EC50 with CD20 (human) [1] and in the assay with CD20 (human) [2] were 1.5 nM and 1 nM, respectively.
